Measurements taken from patent publication US9777309B2, “High throughput assay for monitoring AMP production and aminoacyl-tRNA synthetase activity” (Board of Supervisors of Louisiana State University and …, priority 2014, dated 2017).

B1: G. stearothermophilus tyrosyl-tRNA synthetase (Geobacillus stearothermophilus) (protein)
chain: MDLLAELQWRGLVNQTTDEDGLRKLLNEERVTLYCGFDPTADSLHIGHLATILTMRRFQQAGHRPIALVGGATGLIGDPSGKKSERTLNAKETVEAWSARIKEQLGRFLDFEADGNPAKIKNNYDWIGPLDVITFLRDVGKHFSVNYMMAKESVQSRIETGISFTEFSYMMLQAYDFLRLYETEGCRLQIGGSDQWGNITAGLELIRKTKGEARAFGLTIPLVTKADGTKFGKTESGTIWLDKEKTSPYEFYQFWINTDDRDVIRYLKYFTFLSKEEIEALEQELREAPEKRAAQKTLAEEVTKLVHGEEALRQAIRISEALFSGDIANLTAAEIEQGFKDVPSFVHEGGDVPLVELLVSAGISPSKRQAREDIQNGAIYVNGERLQDVGAILTAEHRLEGRFTVIRRGKKKYYLIRYA
B2: AMP deaminase (Saccharomyces cerevisiae S288C) (protein)
chain: MDNQATQRLNDLSLEPAPSHDEQDGSGLVIDIDQRKIGDEQAGVVVDDETPPLEQQDSHESLAADSRNANFSYHENQQLLENGTKQLALDEHDSHSAILEQPSHSTNCSSSNIAAMNKGHDSADHASQNSGGKPRTLSASAQHILPETLKSFAGAPVVNKQVRTSASYKMGMLADDASQQFLDDPSSELIDLYSKVAECRNLRAKYQTISVQNDDQNPKNKPGWVVYPPPPKPSYNSDTKTVVPVTNKPDAEVFDFTKCEIPGEDPDWEFTLNDDDSYVVHRSGKTDELIAQIPTLRDYYLDLEKMISISSDGPAKSFAYRRLQYLEARWNLYYLLNEYQETSVSKRNPHRDFYNVRKVDTHVHHSACMNQKHLLRFIKHKLRHSKDEKVIFRDGKLLTLDEVFRSLHLTGYDLSIDTLDMHAHKDTFHRFDKFNLKYNPIGESRLREIFLKTNNYIKGTYLADITKQVIFDLENSKYQNCEYRISVYGRSLDEWDKLASWVIDNKVISHNVRWLVQIPRLYDIYKKTGIVQSFQDICKNLFQPLFEVTKNPQSHPKLHVFLQRVIGFDSVDDESKVDRRFHRKYPKPSLWEAPQNPPYSYYLYYLYSNVASLNQWRAKRGFNTLVLRPHCGEAGDPEHLVSAYLLAHGISHGILLRKVPFVQYLYYLDQVGIAMSPLSNNALFLTYDKNPFPRYFKRGLNVSLSTDDPLQFSYTREPLIEEYSVAAQIYKLSNVDMCELARNSVLQSGWEAQIKKHWIGKDFDKSGVEGNDVVRTNVPDIRINYRYDTLSTELELVNHFANFKRTIEEK

Tests used:
Assay in all cases: purified protein, by the assay type
[1] = substrate: N[C@H](Cc1ccc(O)cc1)C(=O)O; settings: other: 10 mM MgATP, saturating tRNA^Tyr, 25° C., L-Tyr with cyclodityrosine synthase, D-Tyr with D-tyrosyl-tRNA deacylase, pH 7.78
Description: (§1) The pH of all stock solutions was adjusted to 7.0 prior to use. All kinetic assays were performed in 96 well microtiter plates at 25° C. using either 100 or 200 μl of assay mix per well. Under these conditions, the path lengths are 0.28 and 0.56 cm, respectively. The reaction rate for formation of the L-Tyr-tRNA^TYr product was determined by monitoring the increase in absorbance at 340 nm associated with the conversion of NAD^+ to NADH using a BioTek Synergy 4 plate reader (ε340=6220 M^−1 cm^−1).
(§2) Initial rates for each substrate concentration were determined from a linear fit of the data (A340 vs. time). Km and Vmax values were determined by fitting a plot of the initial rate vs. substrate concentration to the Michaelis-Menten equation, the same equations (1) and (2) above:
(§3) [formula] where vo is the initial rate of the reaction and [S] is the substrate concentration. kcat values were calculated from the equation: Vmax=kcat[E]

[2] = substrate: N[C@@H](Cc1ccc(O)cc1)C(=O)O; settings: other: 10 mM MgATP, saturating tRNA^Tyr, 25° C., L-Tyr with cyclodityrosine synthase, D-Tyr with D-tyrosyl-tRNA deacylase, pH 7.78
Description: as §1, §2, §3

[3] = substrate: Nc1ncnc2c1ncn2[C@@H]1O[C@H](COP(=O)(O)O)[C@@H](O)[C@H]1O; assay type: biochemical, Saccharomyces cerevisiae; settings: other: pH 7.2, 2 mM ATP, 3 μM IMP dehydrogenase, 25° C., standard error in parenthesis
Description: All kinetic assays were performed in 96 well microtiter plates at 25° C. using 200 μl of assay mix per well. Under these conditions, the path length is 0.56 cm. All assays were monitored by following the change in absorbance at 340 nm over 10 minutes using a Synergy 4 Hybrid Microplate Reader (BioTek, Winooski, Vt.).
Initial rates for each substrate concentration were determined from a linear fit of the data (A340 vs. time). Km and Vmax values were determined by fitting a plot of initial rate vs. substrate concentration to the Michaelis-Menten equation:
[formula] where vo is the initial rate of the reaction, [E] is the total enzyme concentration, and [S] is the substrate concentration. kcat values were calculated from the equation: Vmax=kcat[E] (2) where [E] is the molar concentration of the enzyme in the assay.

Protein	Km [1]	Km [2]	Km [3]	kcat [3]
B1	23 (±6) μM	24 (±3) μM		
B2			0.4 (±0.1) mM	21 (±4) s^−1
